In patent publication US20260092115A1 (Chugai, published 2026):
Numbering of substitutions follows the chain as printed. Each block holds one binder with its values, some of them ahead of it.

Assays:
[1] = target: T1, human CTLA4 (soluble analyte of the Biacore assays of Examples 3-3, 4 and 5) (human, UniProt P16410 36-161); test: SPR 37C, Ab on Protein G, 1000 nM CTLA4, no ATP
T1 construct: also called hCTLA4
T1 sequence: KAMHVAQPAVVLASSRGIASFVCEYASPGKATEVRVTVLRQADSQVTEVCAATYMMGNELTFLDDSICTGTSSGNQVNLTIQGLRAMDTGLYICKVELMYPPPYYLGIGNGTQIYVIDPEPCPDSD
Experimental: (§1) Next, by interacting with a human CTLA4 solution prepared in a running buffer containing ATP to the desired concentration, or a human CTLA4 solution prepared in a running buffer containing no ATP, the binding ability of the antibody to human CTLA4 in the presence or absence of ATP was evaluated. Chips were regenerated with 25 mM NaOH and 10 mM Glycine-HCl (pH 1.5), and assay was performed by repeatedly capturing antibodies. The dissociation constant of each antibody for CTLA4 was calculated using Biacore T200 Evaluation Software 2.0. Specifically, the binding rate constant ka (L/mol/s) and the dissociation rate constant kd (1/s) were calculated by global fitting of the sensorgrams obtained by the measurement, using a 1:1 Langmuir binding model. The dissociation constant KD (mol/L) was calculated from those values. Alternatively, the dissociation constant KD (mol/L) was calculated by the steady state model. In addition, the binding amount of CTLA4 per unit amount of antibody was calculated by correcting the amount of CTLA4 bound as calculated from the sensorgram obtained by the assay with the amount of antibody captured onto the chip surface.
(§2) Biacore T200 was used to evaluate the binding of the generated variants to ATP and to human CTLA4. The assay of binding to ATP was performed at 37° C. using 20 mM ACES (pH 7.4), 150 mM NaCl, 2 mM MgCl₂, 0.05% Tween20 as the running buffer. First, Sure Protein A (GE Healthcare) was immobilized onto a Series S Sensor Chip CM3 (GE Healthcare), and the antibodies were captured onto the chip by interacting an antibody solution prepared in the running buffer. Next, the binding ability to the antibody was evaluated by interacting with an ATP solution prepared in the running buffer. Chips were regenerated with 25 mM NaOH and 10 mM Glycine-HCl (pH 1.5) and assay was performed by repeatedly capturing antibodies. For the binding amount of each antibody to ATP, the binding amount of ATP per unit amount of antibody was calculated by correcting the amount of binding when ATP was injected at a concentration of 100 nM with the amount of antibody captured onto the chip surface. Binding to human CTLA4 was measured using Biacore T200 by the method described in Example 3-3.

[2] = target: T1, human CTLA4 (soluble analyte of the …); test: SPR 37C, Ab on Protein G, 1000 nM CTLA4, ATP 100 uM
Experimental: as §1, §2

[3] = target: T1, human CTLA4 (soluble analyte of the …); test: SPR 37C, Ab on Protein G, 1000 nM CTLA4, ATP 1 uM
Experimental: as §1, §2

[4] = target: T1, human CTLA4 (soluble analyte of the …); test: SPR 37C, Ab on Protein G, 1000 nM CTLA4, ATP 10 uM
Experimental: as §1, §2

[5] = target: T1, human CTLA4 (soluble analyte of the …); test: SPR 37C, ATP 10 µM
Experimental: as §1, with “Biacore T200 was used to measure the binding of the generated antibodies to human CTLA4. 20 mM ACES (pH 7.4), 150 mM NaCl, 2 mM MgCl₂, 0.05% Tween 20 with ATP added to the desired concentration was used as the running buffer, and the assay was performed at 37° C. First, Protein G (CALBIOCHEM) was immobilized onto a Series S Sensor Chip CM3 (GE Healthcare), and the antibodies were captured by interacting an antibody solution prepared in an ATP-free running buffer with the chip. Next,” for “Next,”, “In addition, the binding amount of CTLA4 per unit amount of antibody was calculated by correcting the amount of CTLA4 bound as calculated from the sensorgram obtained by the assay with the amount of antibody captured onto the chip surface.” left out

[6] = target: T1, human CTLA4 (soluble analyte of the …); test: SPR 37C, Ab on Protein G, 1000 nM CTLA4, ATP 1 uM; ATP 1 uM; binding amount at 1000 nM CTLA4
Experimental: as §1, with “Biacore T200 was used to measure the binding of the generated antibodies to human CTLA4. 20 mM ACES (pH 7.4), 150 mM NaCl, 2 mM MgCl₂, 0.05% Tween 20 with ATP added to the desired concentration was used as the running buffer, and the assay was performed at 37° C. First, Protein G (CALBIOCHEM) was immobilized onto a Series S Sensor Chip CM3 (GE Healthcare), and the antibodies were captured by interacting an antibody solution prepared in an ATP-free running buffer with the chip. Next,” for “Next,”
(§3) The KD values marked with an * in the table were calculated using the steady state model. It was shown that all the variants prepared using 04H0150-G1m/04L0072-lam1 as the parent antibody had enhanced binding in the presence of ATP as compared to 04H0150-G1m/04L0072-lam1.

[7] = target: T1, human CTLA4 (soluble analyte of the …); test: SPR 37C, Ab on Protein G, 1000 nM CTLA4, no ATP; no ATP; binding amount at 1000 nM CTLA4
Experimental: as §1, with “Biacore T200 was used to measure the binding of the generated antibodies to human CTLA4. 20 mM ACES (pH 7.4), 150 mM NaCl, 2 mM MgCl₂, 0.05% Tween 20 with ATP added to the desired concentration was used as the running buffer, and the assay was performed at 37° C. First, Protein G (CALBIOCHEM) was immobilized onto a Series S Sensor Chip CM3 (GE Healthcare), and the antibodies were captured by interacting an antibody solution prepared in an ATP-free running buffer with the chip. Next,” for “Next,”
as §3

[8] = target: T1, human CTLA4 (soluble analyte of the …); test: SPR 37C, Ab on Protein G, 1000 nM CTLA4, ATP 10 uM; ATP 10 uM; binding amount at 1000 nM CTLA4
Experimental: as §1, with “Biacore T200 was used to measure the binding of the generated antibodies to human CTLA4. 20 mM ACES (pH 7.4), 150 mM NaCl, 2 mM MgCl₂, 0.05% Tween 20 with ATP added to the desired concentration was used as the running buffer, and the assay was performed at 37° C. First, Protein G (CALBIOCHEM) was immobilized onto a Series S Sensor Chip CM3 (GE Healthcare), and the antibodies were captured by interacting an antibody solution prepared in an ATP-free running buffer with the chip. Next,” for “Next,”
as §3

[9] = target: T1, human CTLA4 (soluble analyte of the …); test: SPR 37C, Ab on Protein G, 1000 nM CTLA4, ATP 100 uM; ATP 100 uM; binding amount at 1000 nM CTLA4
Experimental: as §1, with “Biacore T200 was used to measure the binding of the generated antibodies to human CTLA4. 20 mM ACES (pH 7.4), 150 mM NaCl, 2 mM MgCl₂, 0.05% Tween 20 with ATP added to the desired concentration was used as the running buffer, and the assay was performed at 37° C. First, Protein G (CALBIOCHEM) was immobilized onto a Series S Sensor Chip CM3 (GE Healthcare), and the antibodies were captured by interacting an antibody solution prepared in an ATP-free running buffer with the chip. Next,” for “Next,”
as §3

mCTLA4-His = target: T2, mCTLA4-His (mouse, UniProt P09793 36-161); test: SPR 37C, ATP 100 µM
T2 construct: also called mouse CTLA4; Mouse CTLA4

B1: 04H1389-G1m/04L1086-lam1 (antibody, human IgG1, lambda, V domains shown)
VH: EVQLVESGGGLVKPGGSLRLSCAASGFTFSSKTMNWVRQAPGKGLEWVSSISTQSHYIYYAESVKGRFTISRDNAKNSLYLQMNSLRAEDTAVYYCARYGKREDMLWVFDYWGQGTLVTVSS
VL: QSALTQPPSASGSPGQTVTISCDGPSTGVGDYNYVHWYQQHPGKAPKLMIYFTSKKPSGVPDRFSGSKSGNTASLTVSGLQAEDEADYFCQTYAAPLGPMFGGGTKLTVLG
- Binding to Human CTLA4 (amount per unit antibody) [1]: 0.022
- Binding to Human CTLA4 (amount per unit antibody) [2]: 0.193
- Binding to Human CTLA4 (amount per unit antibody) [3]: 0.138
- Binding to Human CTLA4 (amount per unit antibody) [4]: 0.189
- fold enhancement of binding ability against the parent antibody 04H1207-G1m/04L1086-lam1 [5]: ~10 fold

B2: 04H1382-G1m/04L1086-lam1 (antibody, human IgG1, lambda, V domains shown)
VH: B1 VH with E62R
VL: B1 VL
- fold enhancement of binding ability against the parent antibody 04H1208-G1m/04L1086-lam1 [5]: ~10 fold

B5: 04H1389-G1m/04L1305-k0MT (antibody, human IgG1, kappa)
heavy: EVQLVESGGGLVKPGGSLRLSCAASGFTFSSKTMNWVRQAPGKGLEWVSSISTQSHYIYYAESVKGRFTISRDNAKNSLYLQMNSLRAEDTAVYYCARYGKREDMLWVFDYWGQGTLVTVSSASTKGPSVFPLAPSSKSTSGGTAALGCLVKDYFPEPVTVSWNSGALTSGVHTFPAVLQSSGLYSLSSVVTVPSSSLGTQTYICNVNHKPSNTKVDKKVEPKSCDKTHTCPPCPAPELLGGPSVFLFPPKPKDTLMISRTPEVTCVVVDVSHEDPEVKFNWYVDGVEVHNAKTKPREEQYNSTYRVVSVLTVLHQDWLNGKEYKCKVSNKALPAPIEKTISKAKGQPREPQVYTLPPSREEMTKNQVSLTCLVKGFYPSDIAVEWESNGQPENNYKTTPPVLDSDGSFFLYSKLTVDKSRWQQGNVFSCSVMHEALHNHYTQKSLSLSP
light: DIVMTQSPLSLPVTPGEPASISCDGPSTGVGDYNYVHWYQQKPGQAPRLLIYFTSKKPSGVPDRFSGSGSGTDFTLKISRVEAEDVGVYYCQTYAAPLGPMFGQGTKLEIKRTVAAPSVFIFPPSDEQLKSGTASVVCLLNNFYPREAKVQWKVDNALQSGNSQESVTEQDSKDSTYSLSSTLTLSKADYEKHKVYACEVTHQGLSSPVTKSFNRGEC
- Binding to Human CTLA4 (amount per unit antibody) [1]: 0.03
- Binding to Human CTLA4 (amount per unit antibody) [2]: 0.151
- Binding to Human CTLA4 (amount per unit antibody) [3]: 0.12
- Binding to Human CTLA4 (amount per unit antibody) [4]: 0.154

Further lines, results first:

- Binding to Human CTLA4 (amount per unit antibody) [6]: 0.03
- Binding to Human CTLA4 (amount per unit antibody) [7]: 0.005
- Binding to Human CTLA4 (amount per unit antibody) [1]: 0.003
- Binding to Human CTLA4 (amount per unit antibody) [2]: 0.139
- Binding to Human CTLA4 (amount per unit antibody) [3]: 0.022
- Binding to Human CTLA4 (amount per unit antibody) [4]: 0.084
- Binding to Human CTLA4 (amount per unit antibody) [8]: 0.108
- Binding to Human CTLA4 (amount per unit antibody) [9]: 0.17
B3: 04H1208-G1m/04L1086-lam1 (antibody, human IgG1, lambda, V domains shown)
VH: B1 VH with Q54R, H56G, E62R
VL: B1 VL

- Binding to Human CTLA4 (amount per unit antibody) [6]: 0.047
- Binding to Human CTLA4 (amount per unit antibody) [7]: 0.013
- Binding to Human CTLA4 (amount per unit antibody) [1]: 0.01
- Binding to Human CTLA4 (amount per unit antibody) [2]: 0.166
- Binding to Human CTLA4 (amount per unit antibody) [3]: 0.037
- Binding to Human CTLA4 (amount per unit antibody) [4]: 0.111
- Binding to Human CTLA4 (amount per unit antibody) [8]: 0.137
- Binding to Human CTLA4 (amount per unit antibody) [9]: 0.196
B4: 04H1207-G1m/04L1086-lam1 (antibody, human IgG1, lambda, V domains shown)
VH: B1 VH with Q54R, H56G
VL: B1 VL

- fold weaker binding ability to mouse CTLA4 than to human CTLA4 (mCTLA4-His): ~2 fold
B6: 04H1208-G1m/04L1407-k0MT (antibody, human IgG1, kappa, V domains shown)
VH: B1 VH with Q54R, H56G, E62R
VL: DIVMTQSPLSLPVTPGEPASISCDGPSTDVGDYNWVHWYQQKPGQAPRLLIYYTSSKPEGVPDRFSGSGSGTDFTLKISRVEAEDVGVYYCQTYAAPLGPTFGQGTKLEIKR
